In the supplement of paper PMC10724198:
± gives the standard deviation of the averaged measurements.

System: Saccharomyces cerevisiae
Test: protein stability index of tFT-peptide fusion (C-terminal peptide) (PSI (0-1 scale)); higher = more stable (slower turnover)
Conditions: temperature: 30 C
Protocol: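 MPS profiling in S. cerevisiae of the yeast C-terminome library: the last 12 aa of each annotated ORF are fused to the C-terminus of a sfGFP-mCherry timer, after a GGGS linker. Cells are FACS-sorted into 8 mCherry/sfGFP bins and deep-sequenced. PSI runs from 0 (unstable) to 1 (stable); wild type and das1Δ backgrounds, two technical replicates each.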

[1] = genetic background: das1 deletion

Row | Sequence | protein stability index [1] | protein stability index (genetic background: wild type)
1 | VCKFASWLFSKI [AMD2 C-terminal 12 aa] | 0.72 ± 0.041 | 0.6687 ± 0.005
2 | VDHLTDPDIYIP [BUB2 C-terminal 12 aa] | 0.7 ± 0.017 | 0.7129 ± 0.0042
3 | VERNHPVITNIS [YCR087W C-terminal 12 aa] | 0.7114 ± 0.0043 | 0.733 ± 0.062
4 | VESPTLFCVCTQ [YPR170C C-terminal 12 aa] | 0.6115 ± 0.0024 | 0.66 ± 0.028
5 | VFWKLKSRKLRI [MCH1 C-terminal 12 aa] | 0.692 ± 0.0085 | 0.418 ± 0.033
6 | VGENNYYAESII [COS111 C-terminal 12 aa] | 0.714 ± 0.024 | 0.7022 ± 0.005
7 | VGRKPRLPKGKL [YCL002C C-terminal 12 aa] | 0.758 ± 0.021 | 0.842 ± 0.024
8 | VHPNWSPFEVFK [GCY1 C-terminal 12 aa] | 0.744 ± 0.033 | 0.738 ± 0.037
9 | VHTELLIYCHDE [ASR1 C-terminal 12 aa] | 0.7068 ± 0.006 | 0.6802 ± 0.0017
10 | VIKQQNHQTTKI [HKR1 C-terminal 12 aa] | 0.68 ± 0.037 | 0.705 ± 0.055
11 | VISLAAQSKYVQ [MCO6 C-terminal 12 aa] | 0.693 ± 0.019 | 0.697 ± 0.034
12 | VKDKVDAVYSSS [FAA1 C-terminal 12 aa] | 0.6925 ± 0.0045 | 0.678 ± 0.011
13 | VKKNKPSIESKC [GSH1 C-terminal 12 aa] | 0.688 ± 0.0086 | 0.762 ± 0.03
14 | VLESFLAPMVNQ [BET5 C-terminal 12 aa] | 0.688 ± 0.0073 | 0.71 ± 0.061
15 | VLIVLLVLAFIA [TLG1 C-terminal 12 aa] | 0.284 ± 0.013 | 0.286 ± 0.0034
16 | VMLLFIFLIMKL [PEP12 C-terminal 12 aa] | 0.186 ± 0.023 | 0.198 ± 0.01
17 | VMLNSVSISLNK [COG5 C-terminal 12 aa] | 0.711 ± 0.014 | 0.6577 ± 0.00017
18 | VNHNWYSIYEST [TFC3 C-terminal 12 aa] | 0.729 ± 0.013 | 0.681 ± 0.0081
19 | VPLIIDSSGSAN [FTH1 C-terminal 12 aa] | 0.718 ± 0.011 | 0.68 ± 0.0077
20 | VRLRGRKRSMLG [BUD32 C-terminal 12 aa] | 0.701 ± 0.02 | 0.665 ± 0.023
21 | VSGFKDEVLETV [RPS1B C-terminal 12 aa] | 0.679 ± 0.037 | 0.708 ± 0.029

Row | Sequence | protein stability index [1] | protein stability index (genetic background: wild type)
22 | VTTTFDKVHQDW [LEU1 C-terminal 12 aa] | 0.715 ± 0.017 | 0.714 ± 0.058
23 | VTVSNVWFNQLQ [YPL197C C-terminal 12 aa] | 0.70615 ± 0.00045 | 0.526 ± 0.014
24 | VVCMVVLLAVLS [VAM3 C-terminal 12 aa] | 0.148 ± 0.018 | 0.171 ± 0.012
25 | VVGEDEKDDFFE [EFG1 C-terminal 12 aa] | 0.721 ± 0.024 | 0.691 ± 0.026
26 | VVGRYMRSGLKK [NOP1 C-terminal 12 aa] | 0.6704 ± 0.005 | 0.682 ± 0.028
27 | VVNNRRQSRTPK [BLI1 C-terminal 12 aa] | 0.707 ± 0.044 | 0.661 ± 0.0082
28 | VVYRHLHTKVSK [HAL5 C-terminal 12 aa] | 0.682 ± 0.0075 | 0.658 ± 0.0043
29 | VYGRNGNESHST [YGR050C C-terminal 12 aa] | 0.701 ± 0.019 | 0.689 ± 0.017
30 | VYTSKTQYKFDI [YNR071C C-terminal 12 aa] | 0.6849 ± 0.0021 | 0.694 ± 0.062
31 | WFICRMLSKVTL [YNR003W-A C-terminal 12 aa] | 0.609 ± 0.012 | 0.595 ± 0.012
32 | WHKSQLEDMNGY [YHL012W C-terminal 12 aa] | 0.683 ± 0.005 | 0.6568 ± 0.0052
33 | WLPELALLCALD [LAS21 C-terminal 12 aa] | 0.614 ± 0.0098 | 0.633 ± 0.017
34 | WRKFGINSYSYS [DIA2 C-terminal 12 aa] | 0.734 ± 0.016 | 0.759 ± 0.075
35 | WRSIGSGPIMEF [BUG1 C-terminal 12 aa] | 0.706 ± 0.024 | 0.719 ± 0.031
36 | WSDKLLQIYARC [SAE2 C-terminal 12 aa] | 0.5447 ± 0.0049 | 0.516 ± 0.045
37 | WVAHSKTKLATK [CAB2 C-terminal 12 aa] | 0.677 ± 0.014 | 0.70267 ± 0.00017
38 | YANLLYKFWNDQ [PCL7 C-terminal 12 aa] | 0.735 ± 0.011 | 0.672 ± 0.021
39 | YASRGTGELWSP [NMD4 C-terminal 12 aa] | 0.7031 ± 0.004 | 0.714 ± 0.0047
40 | YAVFTVLFSIIF [SPS2 C-terminal 12 aa] | 0.297 ± 0.013 | 0.295 ± 0.0078
41 | YCFYINCIMNRR [RRT15 C-terminal 12 aa] | 0.658 ± 0.031 | 0.551 ± 0.00072
42 | YEIEPDFDRLAV [SVP26 C-terminal 12 aa] | 0.691 ± 0.022 | 0.681 ± 0.021

Row | Sequence | protein stability index [1] | protein stability index (genetic background: wild type)
43 | YERERKLRGGKK [NOP14 C-terminal 12 aa] | 0.702 ± 0.027 | 0.692 ± 0.072
44 | YEYHTEEDVMYA [YGR130C C-terminal 12 aa] | 0.703 ± 0.013 | 0.684 ± 0.044
45 | YFNLFTDLSGSK [NEL1 C-terminal 12 aa] | 0.73 ± 0.012 | 0.72 ± 0.043
46 | YGLLKFHSVFES [YMR209C C-terminal 12 aa] | 0.707 ± 0.0069 | 0.668 ± 0.054
47 | YGNWSKTVADLN [BAT1 C-terminal 12 aa] | 0.692 ± 0.022 | 0.687 ± 0.022
48 | YGRGETPKHAIE [DPH1 C-terminal 12 aa] | 0.692 ± 0.0084 | 0.713 ± 0.062
49 | YKTEYPEWALRR [PUS9 C-terminal 12 aa] | 0.723 ± 0.01 | 0.717 ± 0.053
50 | YLIKNPGYPIVF [OST6 C-terminal 12 aa] | 0.621 ± 0.0095 | 0.6361 ± 0.0047
51 | YLISEKIIRKHL [MET14 C-terminal 12 aa] | 0.685 ± 0.017 | 0.602 ± 0.026
52 | YLPRSKWFGILV [ALG14 C-terminal 12 aa] | 0.359 ± 0.02 | 0.165 ± 0.0058
53 | YNPPDYEPEAKK [PHM7 C-terminal 12 aa] | 0.6998 ± 0.0052 | 0.639 ± 0.008
54 | YPKFIKGHEEYF [BSC6 C-terminal 12 aa] | 0.702 ± 0.035 | 0.715 ± 0.0089
55 | YRDDPNQKNYKD [MSS4 C-terminal 12 aa] | 0.6905 ± 0.0037 | 0.749 ± 0.081
56 | YSINPDEIELDI [SYF1 C-terminal 12 aa] | 0.707 ± 0.025 | 0.698 ± 0.029
57 | YSLLIHLSKKKS [YNR005C C-terminal 12 aa] | 0.668 ± 0.025 | 0.6119 ± 0.0036
58 | YSSDSSTLHSKV [FIG1 C-terminal 12 aa] | 0.7 ± 0.021 | 0.6859 ± 0.0017
59 | YSSRRWRLDTHD [RTC4 C-terminal 12 aa] | 0.763 ± 0.034 | 0.752 ± 0.058
60 | YSWMQPESGWNP [YER188W C-terminal 12 aa] | 0.738 ± 0.011 | 0.722 ± 0.032
61 | YSYSSPKYTFPC [YKL147C C-terminal 12 aa] | 0.6967 ± 0.0022 | 0.669 ± 0.063
